Paper PMC10269845
pKd: −log10 of the molar value.

Molecular target: plasminogen (UniProt P00747)
Test: SPR

plasminogen, sequence (P00747 20-810): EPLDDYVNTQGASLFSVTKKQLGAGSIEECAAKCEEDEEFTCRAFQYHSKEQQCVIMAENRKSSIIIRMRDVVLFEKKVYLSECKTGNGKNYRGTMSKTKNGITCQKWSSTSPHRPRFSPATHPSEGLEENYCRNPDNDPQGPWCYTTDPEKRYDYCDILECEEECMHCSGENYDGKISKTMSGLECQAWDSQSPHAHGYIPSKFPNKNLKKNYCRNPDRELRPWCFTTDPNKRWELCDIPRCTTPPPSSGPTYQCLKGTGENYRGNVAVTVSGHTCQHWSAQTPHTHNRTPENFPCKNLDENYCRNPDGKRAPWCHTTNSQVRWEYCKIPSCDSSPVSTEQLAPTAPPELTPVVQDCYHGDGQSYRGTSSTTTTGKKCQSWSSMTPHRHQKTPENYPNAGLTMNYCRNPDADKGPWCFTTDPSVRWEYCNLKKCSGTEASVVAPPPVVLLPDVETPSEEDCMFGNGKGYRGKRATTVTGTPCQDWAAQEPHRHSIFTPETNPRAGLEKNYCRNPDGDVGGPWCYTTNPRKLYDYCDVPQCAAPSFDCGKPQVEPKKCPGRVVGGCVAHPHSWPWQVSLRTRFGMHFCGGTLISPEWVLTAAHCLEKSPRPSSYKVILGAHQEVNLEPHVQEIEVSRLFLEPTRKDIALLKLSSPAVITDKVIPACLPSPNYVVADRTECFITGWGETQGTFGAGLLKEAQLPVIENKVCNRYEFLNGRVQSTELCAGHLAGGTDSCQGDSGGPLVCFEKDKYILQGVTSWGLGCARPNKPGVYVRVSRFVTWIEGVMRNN

## rGAPDH C-terminal mutant (K336A) (from UniProt E4QS33 1-336) (enzyme)
  pKd: 6.22
